Test results from the RNAGym collection of RNA variant scans (doi:10.7554/elife.80360).

B1: CPEB3 Ribozyme (parent)
chain: GGGGGCCACAGCAGAAGCGUUCACGUCGCGGCCCCUGUCAGAUUCUGGUGAAUCUGCGAAUUCUGCUGU

Variants of: B1
Test: self-cleavage, relative activity (ratio to wild type); higher = more cleavage; co-transcriptional
GGGCGCCACAGCAGAAGCGUUCACGUCGCGGCCCCUGUCAGAUUCUGGUGAAUCUGCGAUUUCUGCUGU showed a self-cleavage of 0.174.
GGGCGACACAGCAGAAGCGUUCACGUCGCGGCCCCUGUCAGAUUCUGGUGAAUCUGCGAAUUCUGCUGU gave a self-cleavage of 0.0438.
In the case of GGGCGGCACAGCAGAAGCGUUCACGUCGCGGCCCCUGUCAGAUUCUGGUGAAUCUGCGAAUUCUGCUGU, the self-cleavage is reported as 0.0309.
Work on GGGCGCAACAGCAGAAGCGUUCACGUCGCGGCCCCUGUCAGAUUCUGGUGAAUCUGCGAAUUCUGCUGU yielded a self-cleavage of 0.0992.
Variant GGGCGCUACAGCAGAAGCGUUCACGUCGCGGCCCCUGUCAGAUUCUGGUGAAUCUGCGAAUUCUGCUGU has a self-cleavage of 0.129.
For GGGCGCCAAAGCAGAAGCGUUCACGUCGCGGCCCCUGUCAGAUUCUGGUGAAUCUGCGAAUUCUGCUGU, the self-cleavage was 0.905.
Variant GGGCGCCAGAGCAGAAGCGUUCACGUCGCGGCCCCUGUCAGAUUCUGGUGAAUCUGCGAAUUCUGCUGU has a self-cleavage of 0.899.
Work on GGGCGCCAUAGCAGAAGCGUUCACGUCGCGGCCCCUGUCAGAUUCUGGUGAAUCUGCGAAUUCUGCUGU yielded a self-cleavage of 0.937.
In the case of GGGCGCCACAGAAGAAGCGUUCACGUCGCGGCCCCUGUCAGAUUCUGGUGAAUCUGCGAAUUCUGCUGU, the self-cleavage is reported as 0.166.
In the case of GGGCGCCACAGGAGAAGCGUUCACGUCGCGGCCCCUGUCAGAUUCUGGUGAAUCUGCGAAUUCUGCUGU, the self-cleavage is reported as 0.148.
GGGCGCCACAGUAGAAGCGUUCACGUCGCGGCCCCUGUCAGAUUCUGGUGAAUCUGCGAAUUCUGCUGU gave a self-cleavage of 0.608.
GGGCGCCACAGCAGAAGAGUUCACGUCGCGGCCCCUGUCAGAUUCUGGUGAAUCUGCGAAUUCUGCUGU showed a self-cleavage of 0.0472.
GGGCGCCACAGCAGAAGGGUUCACGUCGCGGCCCCUGUCAGAUUCUGGUGAAUCUGCGAAUUCUGCUGU showed a self-cleavage of 0.0437.
Work on GGGCGCCACAGCAGAAGUGUUCACGUCGCGGCCCCUGUCAGAUUCUGGUGAAUCUGCGAAUUCUGCUGU yielded a self-cleavage of 0.129.
GGGCGCCACAGCAGAAGCGUUAACGUCGCGGCCCCUGUCAGAUUCUGGUGAAUCUGCGAAUUCUGCUGU showed a self-cleavage of 0.0918.
With GGGCGCCACAGCAGAAGCGUUCAAGUCGCGGCCCCUGUCAGAUUCUGGUGAAUCUGCGAAUUCUGCUGU the self-cleavage was 0.167.
For GGGCGCCACAGCAGAAGCGUUCAGGUCGCGGCCCCUGUCAGAUUCUGGUGAAUCUGCGAAUUCUGCUGU, the self-cleavage was 0.117.
Work on GGGCGCCACAGCAGAAGCGUUCACGUUGCGGCCCCUGUCAGAUUCUGGUGAAUCUGCGAAUUCUGCUGU yielded a self-cleavage of 0.0743.
In the case of GGGCGCCACAGCAGAAGCGUUCACGUCGAGGCCCCUGUCAGAUUCUGGUGAAUCUGCGAAUUCUGCUGU, the self-cleavage is reported as 0.0787.
In the case of GGGCGCCACAGCAGAAGCGUUCACGUCGGGGCCCCUGUCAGAUUCUGGUGAAUCUGCGAAUUCUGCUGU, the self-cleavage is reported as 0.0753.
For GGGCGCCACAGCAGAAGCGUUCACGUCGCGGUCCCUGUCAGAUUCUGGUGAAUCUGCGAAUUCUGCUGU, the self-cleavage was 0.198.
Variant GGGCGCCACAGCAGAAGCGUUCACGUCGCGGCCGCUGUCAGAUUCUGGUGAAUCUGCGAAUUCUGCUGU has a self-cleavage of 0.0856.
GGGCGCCACAGCAGAAGCGUUCACGUCGCGGCCCAUGUCAGAUUCUGGUGAAUCUGCGAAUUCUGCUGU showed a self-cleavage of 0.0948.
For GGGCGCCACAGCAGAAGCGUUCACGUCGCGGCCCGUGUCAGAUUCUGGUGAAUCUGCGAAUUCUGCUGU, the self-cleavage was 0.0833.
With GGGCGCCACAGCAGAAGCGUUCACGUCGCGGCCCCUGUAAGAUUCUGGUGAAUCUGCGAAUUCUGCUGU the self-cleavage was 0.223.
Work on GGGCGCCACAGCAGAAGCGUUCACGUCGCGGCCCCUGUUAGAUUCUGGUGAAUCUGCGAAUUCUGCUGU yielded a self-cleavage of 0.261.
GGGCGCCACAGCAGAAGCGUUCACGUCGCGGCCCCUGUCAGAUUAUGGUGAAUCUGCGAAUUCUGCUGU showed a self-cleavage of 0.419.
For GGGCGCCACAGCAGAAGCGUUCACGUCGCGGCCCCUGUCAGAUUGUGGUGAAUCUGCGAAUUCUGCUGU, the self-cleavage was 0.477.
GGGCGCCACAGCAGAAGCGUUCACGUCGCGGCCCCUGUCAGAUUUUGGUGAAUCUGCGAAUUCUGCUGU gave a self-cleavage of 0.733.
GGGCGCCACAGCAGAAGCGUUCACGUCGCGGCCCCUGUCAGAUUCUGGUGAAUAUGCGAAUUCUGCUGU showed a self-cleavage of 0.225.
With GGGCGCCACAGCAGAAGCGUUCACGUCGCGGCCCCUGUCAGAUUCUGGUGAAUGUGCGAAUUCUGCUGU the self-cleavage was 0.175.
In the case of GGGCGCCACAGCAGAAGCGUUCACGUCGCGGCCCCUGUCAGAUUCUGGUGAAUUUGCGAAUUCUGCUGU, the self-cleavage is reported as 0.562.
Work on GGGCGCCACAGCAGAAGCGUUCACGUCGCGGCCCCUGUCAGAUUCUGGUGAAUCUGAGAAUUCUGCUGU yielded a self-cleavage of 0.136.
GGGCGCCACAGCAGAAGCGUUCACGUCGCGGCCCCUGUCAGAUUCUGGUGAAUCUGCGAAUUAUGCUGU gave a self-cleavage of 0.217.
Variant GGGCGCCACAGCAGAAGCGUUCACGUCGCGGCCCCUGUCAGAUUCUGGUGAAUCUGCGAAUUUUGCUGU has a self-cleavage of 0.584.
With GGGCGCCACAGCAGAAGCGUUCACGUCGCGGCCCCUGUCAGAUUCUGGUGAAUCUGCGAAUUCUGAUGU the self-cleavage was 0.396.
With GGGCGCCACAGCAGAAGCGUUCACGUCGCGGCCCCUGUCAGAUUCUGGUGAAUCUGCGAAUUCUGGUGU the self-cleavage was 0.229.
With GGGCGCCACAGCAGAAGCGUUCACGUCGCGGCCCCUGUCAGAUUCUGGUGAAUCUGCGAAUUCUGUUGU the self-cleavage was 0.678.
With GGGCCCCACAGCAGAAGCGUUCACGUCGCGGCCCCUGUCAGAUUCUGGUGAAUCUGCGAAUUCUGCUGU the self-cleavage was 0.212.
